Experimental data published in patent US20180009906A1 (CURED, published 2018).

T1: serine hydroxymethyltransferase Δ2-28 mutant (Escherichia coli, UniProt A7ZPZ4 29-417)
T1 construct: Expressed in Escherichia coli cells and 293T cells; tested in Western blotting of cell lysate; not shown: Myc-tag (40aa) at the C-terminus
T1 sequence: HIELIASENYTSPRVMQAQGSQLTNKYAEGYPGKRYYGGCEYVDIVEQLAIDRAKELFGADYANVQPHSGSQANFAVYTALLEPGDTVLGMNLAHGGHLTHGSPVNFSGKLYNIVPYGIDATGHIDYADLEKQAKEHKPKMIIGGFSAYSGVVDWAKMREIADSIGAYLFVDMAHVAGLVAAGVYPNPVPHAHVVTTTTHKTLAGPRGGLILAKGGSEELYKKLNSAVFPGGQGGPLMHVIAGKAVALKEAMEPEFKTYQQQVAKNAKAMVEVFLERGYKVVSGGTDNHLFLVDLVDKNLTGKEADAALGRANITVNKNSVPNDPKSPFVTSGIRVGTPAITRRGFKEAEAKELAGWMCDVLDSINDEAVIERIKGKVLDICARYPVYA

T2: full length serine hydroxymethyltransferase (SEQ ID NO: 74), c-Myc tagged at the C-terminus (Escherichia coli, UniProt A7ZPZ4 1-417)
T2 construct: Expressed in Escherichia coli (DH5α); tested denatured in Western blotting of cell lysate; also called SHMT; full length: wild-type
T2 sequence: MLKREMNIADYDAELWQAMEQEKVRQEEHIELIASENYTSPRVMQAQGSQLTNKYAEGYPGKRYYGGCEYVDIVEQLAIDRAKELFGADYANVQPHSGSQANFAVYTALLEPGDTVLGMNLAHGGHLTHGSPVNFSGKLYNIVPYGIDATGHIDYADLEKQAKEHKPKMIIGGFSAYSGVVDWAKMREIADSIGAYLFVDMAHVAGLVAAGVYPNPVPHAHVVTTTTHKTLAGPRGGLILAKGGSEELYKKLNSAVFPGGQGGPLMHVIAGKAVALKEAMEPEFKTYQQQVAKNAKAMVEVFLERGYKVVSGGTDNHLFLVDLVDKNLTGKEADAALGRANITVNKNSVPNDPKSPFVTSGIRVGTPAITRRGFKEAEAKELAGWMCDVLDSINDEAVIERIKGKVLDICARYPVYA


Tests used:
[1] = molecular target: T1, serine hydroxymethyltransferase Δ2-28 …; assay: Western blot of cell lysates (E. coli and 293T expression)
[2] = molecular target: T2, full length serine …; assay: Western blot of c-Myc-tagged full-length SHMT expressed in E. coli (DH5α)

Binder | binding result [1] | binding result [2]
W27 monoclonal IgA antibody (antibody, V domains shown, Mouse IgA from a hybridoma of small-intestinal lamina propria B cells of wild-type C57BL/6 mice, partially purified) VH: EVQLQQSGSELVKSGASVKLSCTVSGFNFTDYYIHWVRQRTEQGLEWIGRIDPENDETTYAPKFQGKATMTADTSSNTAYLQLTSLTSEDTAVYYCARSTVLDYWGHGTTLTVSS VL: DVLMTQTPLSLPVSLGDQASISCRASQSIVHTNGNTYLEWYLQKPGQSPKLLIYKVSNRFSGVPDRFSGSGSGTDFILKISRVEAEDLGVYYCFQGSHVPPTFGGGTKLEVKR | no binding | 
W11 monoclonal IgA antibody (antibody, V domains shown, Mouse IgA from hybridoma) VH: QVQLKQSGPGLVQPSQSLSITCTVSGFSLTNYGVHWIRQSPGKGLEWLGVIWSGGRIDYNAAFISRLNINKDNSKSQVFFKMNSLQTDDTAIYYCARTYDGYYFFQYWGQGTPLTVSS VL: DVVMTQTPLSLPVSLGDEASISCRSSRSLIHSNGHTFLDWYLQKPGQSPKLLIYKVSNRFSGVPDRFSGSGSGTDFTLKISRVEAEDLGVYFCAQSTHAPLLTFGAGTKLELKR |  | binds
W34 monoclonal IgA antibody (antibody, V domains shown, Mouse IgA from hybridoma) VH: DVQLQESGPGMVKPSQSLSLTCTVTGYSITSGYDWHWIRHFPGNKLEWMGYISYSGSTDYNPALRSRISITRDTSTNHFFLKVNSVTTEDTATYYCARDGYGSNYVMAYWGQGTSVTVSS VL: QIVLTQSPAIMSASPGEKVTITCSASSSVHYIHWFQLKPGTSPKLWIYSTSNLASGVPARFSGSGSGTSYSLTISRMEAEDAATYYCQQRSSYPLTFGAGTKLELKR |  | binds
